# Measurements as given in the DeepSol protein solubility set.
# Assay: soluble on expression in E. coli; label from the status in PepcDB or PDB records
row,Sequence,soluble on expression in E. coli
1,ERFQLLMTQIGLQDVTTYEEFTKDAKIEKLVADKKNKTWQFHLHVPQIFPAALFHMMDVGMKRAFSQIAETEMQIVPENQTINETLIQEYWNLIVEPIGKQSPMIGKLLMEQKPTFKEPHFIEVAVHNDMEEATIQQRFQAKIIEN,not soluble
2,ESCDLEVYDRVNQSDQLCVISGQGNKRVSFYVTEGVVRNLSLGDKMTVEKEGNAYEGVINDISTMVDDSNGLFKIKADLAQADSVATGSVVKVKVISGRSDNVMTVPVDAIYYDGGVGNVYVYEDGAVHKKEVEVGLYDSELAEIRSGLAADELVISTWSSQLYEGSTVNLKSEGGESAPAGKEPGTGRTETSAAAE,not soluble
3,ESDSVEFNNAISYVNKIKTRFLDHPEIYRSFLEILHTYQKEQLHTKGRPFRGMSEEEVFTEVANLFRGQEDLLSEFGQFLPEAKR,soluble
4,ESRSQISRRNQDMLLSVLDLEKMTVDDIMVPRSEIIGIDINDDWKSILRQLSHSPHGRIVLYRDSLDDAISMLRVREAWRLMSEKKEFTKETMLRAADEIYFVPEGTPLSTQLVKFQRNKKKVGLVVNEYGDIQGLVTVEDILE,not soluble
5,EVQLQASGGGSVQAGQSLRLSCATSGATSSSNCMGWFRQAPGKEREGVAVIDTGRGNTAYADSVQGRLTISLDNAKNTLYLQMNSLKPEDTAMYYCAADTSTWYRGYCGTNPNYFSYWGQGTQVTVSSRGRHHHHHH,soluble
6,EVRALQLEYDQSMEAYQKLVEISPDAIYIQSMEGEILFANPSGIKLLGATDLNELVGLSVMNFIHPDYLNVVENRIGDAENLSGNISEQKAVTLKGEILDIEVVSVAFSYNGKAAEQVIVRNVT,not soluble
7,EVVKRDRIRNKDRPAMQLYQPGARSRNRLCPPDDSTKSGDSAAERKQESGISHRKEGGEE,soluble
8,EVVVVGYSTQKKESLTGALQTVKSDKLKDITTPSVENMLNGKVPGVYVAPGSGQPGSGGAVVIRGQATLSGTTAPLWVIDGVIVGSNAGALNPSDIETMTILKDAASTAIYGSQGANGVILVTTKNGK,not soluble
9,EYRHLVLNQLRNMGGTRFFVSLNNHQIDVDPLPESERKTLVINQVREVLESELSGIPNIEVEFTQRDKLKVFNNELPIDELPLLWAHYSLSFGDLNPPILVMQVEVAQNEWFYLAAVLPAPYINLETNYFELRQ,not soluble
10,FCNAFTPVKAKEVKALILDFLHTNKITLQREIESSFITSAIIAHTGIDAFSISLLLDKNK,not soluble
11,FDLNDFLEQKVLVRMEAIINSMTMKERAKPEIIKGSRKRRIAAGSGMQVQDVNRLLKQFDDMQRMMKKM,soluble
12,FDSFKIEGRAKNADYVMRTTKIYREAIDSVLDGSYYDKLEYFKKELQKVYNRSYDTGFYFRDINKNHDFQYEIEGNASKYRKIEIGRVVNFYKKVSVAEIELWHDLKIGDTILIIGKTTGCVEEVVKSMQINHKDVEIAKKGERVGVKLNHLVREGDRVYLLKET,not soluble
13,FEELAKQIKLAKTPRLLISLKAEVPMAIGWLKPVVLLPASMVTGLNAAQLEMLILHELAHIRRHDYLVNFLQTLIELLFFFHPSVHWIGKQMRNEREYCSDDIAVQHCGDAIAYAHTLTDTASLCAKNHFHTIPTMAMAASGGDL,not soluble
14,FNGHSLKAYPRMTFQLTIKGGNEMNYRIEEKEAFRIVGIKKRVPIIFKGINPEIASMWESLDEKAINKLKELSNVAPSGLISASTNFSEGRTEENGELDHYIGAATTKRCPDNFSRLEVPASTWAVFESIGPFPDTLQEVWGRIYSEWFPSSNYEQIEGPEILWNEHKDVTSPSFKSEIWIPITKK,not soluble
15,FSDISSLQRFVKFSQSDWLVEMLAQERFTSHFQPIVSMKNTSEIYGYEALLRGLDEQGNLIPPQPIVELATEAGLLPQLDRIARLSTIAQFSSHQVSGQIFINFAPTAVYDPASCLKSTVEAIDQAGISHERVVFEVVESDSPQDLDHLKAVLKYYRDAGFSIALDDLGSGYSSLNLLHQLRPDFIKLDMELIRDVHQDLYKASITEKLLEIAQKLNIRTVAEGIECIEELNWVQERGATFAQGYLIAKP,not soluble
16,FSNAPISAEEQMIRAFVKSVEYMSPRKIGALVAIQRVRTLQEYISTGIPLDAKISAELLINIFIPNTPLHDGAVIIKEERIAVTSAYLPLTKNTGISKEFGTRHRAAIGLSEVSDALTFVVSEETGGISITYNGRFKHNL,not soluble

row,Sequence,soluble on expression in E. coli
1,FVRMIFSAEKSVWIQTPYLIPDDSMINALLVAVRSGVDVRIMIPCMPDHPFIYRATQYYANYLHKRGIKIYIYDSGFIHAKTMVIDDELAMVGTTNQDIRSYSLNFEVSTFIYNPDIAWMLAQVFEEDIEKSVLLTDEIIKKQGYWLRFKQNFSRLLSPVL,not soluble
2,GACEQNEDWVVNEPMQSFEENPEYAPLNTIPDWVSEKVTPKEYELWRTMSSRYEINYSFLKKDISEKRKKEIYDCINNICERIEKGQINKYEGFLNIADEDGTTLSDSQYFGRIATRSPEGGAEYKTNGCTLYTHSLGPYIKAAVTYKKSDDDVTITSSSVYTGSPYLGNDPSFSGASSVSYDKDKKLIAASCSGTLSFKDGSRKVEVTVQKTGFMIP,soluble
3,GAHMAGGRSWCLRRVGMSAGWLLLEDGCEVTVGRGFGVTYQLVSKICPLMISRNHCVLKQNPEGQWTIMDNKSLNGVWLNRARLEPLRVYSIHQGDYIQLGVPLENKENAEYEYEVTEEDWETIYPCLSPKNDQMIEK,soluble
4,GALKRAEELKTQANDYFKAKDYENAIKFYSQAIELNPSNAIYYGNRSLAYLRTECYGYALGDATRAIELDKKYIKGYYRRAASNMALGKFRAALRDYETVVKVKPHDKDAKMKYQECNKIVKQKAFERAIAGDEHKRSVVDSLDIESMTIEDEYSGPKLEDGKVTISFMKELMQWYKDQKKLHRKCAYQILVQVKEVLSKLSTLVETTLKETEKITVCGDTHGQFYDLLNIFELNGLPSETNPYIFNGDFVDRGSFSVEVILTLFGFKLLYPDHFHLLRGNHETDNMNQIYGFEGEVKAKYTAQMYELFSEVFEWLPLAQCINGKVLIMHGGLFSEDGVTLDDIRKIERNRQPPDSGPMCDLLWSDPQPQNGRSISKRGVSCQFGPDVTKAFLEENNLDYIIRSHEVKAEGYEVAHGGRCVTVFSAPNYCDQMGNKASYIHLQGSDLRPQFHQFTAVPHPNVKPMAYANTLLQLGMM,soluble
5,GAMADDAAIQQTLAKMGIKSSDIQPAPVAGMKTVLTNSGVLYITDDGKHIIQGPMYDVSGTAPVNVTNKMLLKQLNALEKEMIVYKAPQEKHVITVFTDITCGYSHKLHEQMADYNALGITVRYLAFPRQGLDSDAEKEMKAIWCAKDKNKAFDDVMAGKSVAPASCDVDIADHYALGVQLGVSGTPAVVLSNGTLVPGYQPPKEMKEFLDEHQKMTSGK,soluble
6,GAMADRDRLRPPLDERSLRDQLIGAGSGWRQLDVVAQTGSTNADLLARAASGADIDGVVLIAEHQTAGRGRHGRGWAATARAQIILSVGVRVVDVPVQAWGWLSLAAGLAVLDSVAPLIAVPPAETGLKWPNDVLARGGKLAGILAEVAQPFVVLGVGLNVTQAPEEVDPDATSLLDLGVAAPDRNRIASRLLRELEARIIQWRNANPQLAADYRARSLTIGSRVRVELPGGQDVVGIARDIDDQGRLCLDVGGRTVVVSAGDVVHLR,soluble
7,GAMAMSGGLPELGSKISLISKADIRYEGRLYTVDPQECTIALSSVRSFGTEDRDTQFQIAPQSQIYDYILFRGSDIKDIRVVNNHTLP,soluble
8,GAMAVKVARPCRKIEKWTYLELKGSKANEGVPQAMTAFAEFLNRTGIPINPRFSPGMSMSVPGSEKEFFAKVKELMSSHQFVVVLLPRKDVAIYNMVKRAADITFGVHTVCCVAEKFLSTKGQLGYFANVGLKVNLKFGGTNHNI,soluble
9,GAMHTFYGTRLLNPKPVDFALEGPQGPVRLSQFQDKVVLLFFGFTRCPDVCPTTLLALKRAYEKLPPKAQERVQVIFVSVDPERDPPEVADRYAKAFHPSFLGLSGSPEAVREAAQTFGVFYQKSQYRGPGEYLVDHTATTFVVKEGRLVLLYSPDKAEATDRVVADLQALL,soluble
10,GAMVVSPAGADRRIPTWASRVVSGLARDRPVVVTKEDLTQRLTEAGCGRDPDSAIRELRRIGWLVQLPVKGTWAFIPPGEAAISDPYLPLRSWLARDQNAGFMLAGASAAWHLGYLDRQPDGRIPIWLPPAKRLPDGLASYVSVVRIPWNAADTALLAPRPALLVRRRLDLVAWATGLPALGPEALLVQIATRPASFGPWADLVPHLDDLVADCSDERLERLLSGRPTSAWQRASYLLDSGGEPARGQALLAKRHTEVMPVTRFTTAHSRDRGESVWAPEYQLVDELVVPLLRVIGKA,soluble
11,GANTTETPVKDVELDGRWDDPIRSAATNCPITVFTDGYLLTLKNASPDRDMTIRITDMAKGGVVYENDIPEVQSAYITISIANFPAEEYKLEITGTPSGHLTGYFTKE,soluble
12,GATVHELSRDKKKDTVPWFPRTIQELDRFANQILSYGAELDADHPGFKDPVYRARRKQFADIAYNYRHGQPIPRVEYMEEEKKTWGTVFKTLKSLYKTHACYEYNHIFPLLEKYCGFHEDNIPQLEDVSQFLQTCTGFRLRPVAGLLSSRDFLGGLAFRVFHCTQYIRHGSKPMYTPEPDICHELLGHVPLFSDRSFAQFSQEIGLASLGAPDEYIEKLATIYWFTVEFGLCKQGDSIKAYGAGLLSSFGELQYCLSEKPKLLPLELEKTAIQNYTVTEFQPLYYVAESFNDAKEKVRNFAATIPRPFSVRYDPYTQRIEVLDNT,soluble
13,GDAFCNPQATMDFLRFKLHQHQREVFAVMMLDSQHRLIEFNEMFFGTIDSASVYPREVVKAVLLCNAAAVIFAHNHPSGCAEPSSADRRITERLIAALATIDVPVLDHIVVADTCVSFAERGLL,not soluble
14,GDYIYADSNNNGVYGDDNDYTFQKTSNKPKYNFGFQASAAWKGFDLSMVWAGAAGFSIYWGATTGYNAASTEWGSTIAQRVAENHYFYNPENPDDPRTNINAKYPRMAYIDGYVQNRHGNTTLWLYKGDYIKLKNLSLGYTLPKNWVSKIAMQNARVYVSAENLLTITGFEGQDPESATGMGYSPFRTIAIGANITF,not soluble
15,GEDPAIQVTGARGASVDMSTLDAVTTALDKEHLSHKSIAFENGSILVRFNDTDTQISARDVISEALGKDKIVALNLAPSTPDWLEAIGASPLKLGLDLRGGVHFLMEVDMDAAMEKLVGQQEEAFRSELRDAKIRYRAIRPSGKEGVEVLLRDEEQLAEAKRTLTKNHPDMNFVESDSNGRYALIATFTEQRLQEIRNYAVEQNITILRNRVNELGVAEPLVQRQGASRIVVELPGVQDTARAKEILGATATLEFREVDDKADLAAAANGRAPAGSEIKQDRDGRPVVLKKRVILSGASITDASSSVDEYGRPQVNISLDSEGGNKMSAFSKKNIGKLMATVFAEYKDSGRKTPEGKVILTKHEEVINQATIQSALGRNFRITGIDSAAEAHN,not soluble
16,GEEKKDSKAFIDVSAATLWTAPDSLRPIDVPSATNPVDLWKWTKSMTLDEKLWLTNANKLETQALLGQEVTVVDKKGDWVKVLVHGQPTPRNEEGYPGWMPEKQLTYNQEFADKTNEPFVLVTKPTAILYINPSEKHKSLEVSYNTRLPLLSEDTISYRVLLPNGQKAWLRKNDGTFYRSQNDIPTPAADDLINTGKMFLGLPYIWAGTSGFGFDCSGFTHTIYKSHGITIPRDSGPQSRNGVAVDKEHLQKGDLIFFAHDQGKGSVHHVAMYIGDGNMIHSPRAERSVEIIPLNTPGYIEEYAGARRYLP,soluble
